Experiments:
[1] = molecular target: AP2μ-eCFP fusion (human (HeLa cDNA library)) (UniProt Q96CW1); test: FRET or BRET; FACS-based FRET; 293 T cells cotransfected with Nef-YFP fusion vectors and AP2μ-CFP; 24 hours later the amount of cells scoring FRET+ measured by flow cytometry
AP2μ-eCFP fusion = AP2μ-eCFP fusion (UniProt Q96CW1); test: FACS-based FRET assay; conditions: 293T cells cotransfected with Nef-YFP and AP2µ-CFP, measured 24 hours later
[2] = mean and SD of four to nine independent transfections, parent: est. 62, read off a plot

Substance	percent of FRET+ cells (mean) [1] [%]	response (% FRET+ cells) (AP2μ-eCFP fusion; [2])	response (% FRET+ cells) (AP2μ-eCFP fusion; representative single FACS plot (upper row of panel A), parent: 69.8)
HIV-2 Ben Nef-YFP (natural protein)	< 35		
SIVmac 239 Nef-YFP G2A		3	
SIVmac 239 Nef-YFP Y28A		26	
SIVmac 239 Nef-YFP Y28F		32	38.1
SIVsm FFm1 Nef-YFP (natural protein)	< 35		
